The values that follow come from patent publication US20170190773A1 (IGYXOS, published 2017).

The target of assay [1] is T1, porcine LH (porcine, UniProt P01219 25-120; P01232 21-141). Nature of the assay: ELISA saturation binding on adsorbed hormone; Kd estimated with GraphPad Prism 'One site-Specific binding'. Here is the method:
(§1) Each hormone evaluated was prepared at the concentration of 10 μg/ml in a 0.1 M sodium carbonate buffer, pH 9.6, and distributed in a proportion of 100 μl per well on an ELISA plate. The adsorption time was 18 hours at +4° C. After five washes, the wells were treated with 100 µl of PBS supplemented with 0.1% Tween and 1% BSA for 45 minutes at 37° C., then each antibody or scFv was distributed in a proportion of 100 μl/well and incubated for one hour at 37° C. On each hormone evaluated, the antibody and the scFv were distributed at various concentrations according to a range of 10 to 250 μg/ml for the antibodies and of 10 to 150 or 200 μg/ml for the scFv.
(§2) After five washes, a secondary antibody coupled to peroxidase (HRP) was distributed in a proportion of 100 µl/well and incubated for one hour at 37° C. Depending on the isotype of the monoclonal antibody studied, the secondary antibody was an anti-IgG1 HRP (Ref. 115-035-205, Jackson ImmunoResearch Laboratories Inc), an anti-IgG2a HRP (Ref. 115-035-206, Jackson Laboratories) or an anti-IgM HRP (Ref. 115-035-075, Jackson Laboratories). For the scFvs, an anti-His Tag HRP (Ref. R93125 Life Technologies, France) was used. […] After the reaction had been stopped with 1 M H₂SO₄ (50 μl/well), the strength of the colored reaction (optical density) was measured using a spectrophotometer for ELISA plates.
(§3) An estimation of the dissociation constant Kd of the scFv, with respect to the various FSH, LH and CG studied, was calculated on GraphPad Prism (GraphPad Software Inc., San Diego, Calif., USA, version 5) using the “One site—Specific binding” function in a saturation binding model (“saturation binding experiment model”, GraphPad PRISM software).

The target of assay [2] is T2, bovine LH (bovine, UniProt P01217 25-120; P04651 21-141). Described as above. Here is the method: as §1, §2, §3
For assay [3], the target named is T3, equine chorionic gonadotropin (equine, UniProt P01220 25-120; P08751 21-169).
T3 construct: also called eCG
T3 sequence (P01220 25-120, chain 1 of 2): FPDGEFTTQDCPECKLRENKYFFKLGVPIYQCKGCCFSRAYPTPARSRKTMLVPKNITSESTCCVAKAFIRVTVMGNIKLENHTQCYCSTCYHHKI
T3 sequence (P08751 21-169, chain 2 of 2): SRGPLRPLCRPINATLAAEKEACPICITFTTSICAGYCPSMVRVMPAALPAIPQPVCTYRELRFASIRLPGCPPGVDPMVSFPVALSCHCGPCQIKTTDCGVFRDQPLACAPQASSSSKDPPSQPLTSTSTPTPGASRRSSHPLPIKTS
The assay is described as above. As for the experimental part:
as §1, §2, §3

Assay [4] concerns the target T4, hCG Endo 5000 (purified human chorionic gonadotropin, Schering-Plough) (human, UniProt P01215 25-116; P0DN86 21-165).
T4 construct: Commercial purified hCG
The description is as above. As for the experimental part:
as §1, §2, §3

Assay [5] deals with T5, ovine FSH (ovine, UniProt P01218 25-120; P01227 20-129). The assay is described as above. As for the experimental part:
as §1, §2, §3

Assay [6] concerns the target T6, hCG Chorulon (human chorionic gonadotropin extracted from urine of pregnant women, MSD) (human, UniProt P01215 25-116; P0DN86 21-165).
T6 construct: Commercial urinary hCG, veterinary preparation
The description is as above. Here is the method:
as §1, §2, §3

For assay [7], the target named is T7, hMG Menopur (human menopausal gonadotropin, Ferring Pharmaceuticals) (human).
T7 construct: numbers for it cannot be laid to one hormone
The description is as above. As for the experimental part:
as §1, §2, §3

Assay [8] has as its target T8, ovine LH (ovine, UniProt P01218 25-120; P01231 21-141). The assay is described as above. Here is the method:
as §1, §2, §3

For assay [9], the target named is T1, porcine LH. Description: ELISA; hormone adsorbed on the plate (10 µg/ml), scFv at 200 µg/ml, anti-His Tag HRP. Here is the method:
as §1, §2

Assay [10] addresses T2, bovine LH. The assay is described as above. Here is the method: as §1, §2
In assay [11] the target is T3, equine chorionic gonadotropin. The assay is described as above. As for the experimental part:
as §1, §2

Assay [12] addresses T4, hCG Endo 5000 (purified human chorionic …). The assay is described as above. As for the experimental part:
as §1, §2

The target of assay [13] is T6, hCG Chorulon (human chorionic …). Described as above. Here is the method:
as §1, §2

Assay [14] has as its target T8, ovine LH. The description is as above. As for the experimental part:
as §1, §2

For a further assay, the target named is porcine FSH (porcine, UniProt P01219 25-120; P01228 21-129). Nature of the assay: cell-based or functional assay.
Assay [15] deals with human FSH Gonal-F (recombinant human FSH, Merck Serono) (human, UniProt P01215 25-116; P01225 19-129). Nature of the assay: cell-based or functional assay.
human FSH Gonal-F (recombinant human FSH, Merck Serono), sequence (P01215 25-116, chain 1 of 2): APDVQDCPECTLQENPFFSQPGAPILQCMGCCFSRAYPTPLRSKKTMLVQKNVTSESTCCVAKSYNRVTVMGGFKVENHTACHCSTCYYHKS
human FSH Gonal-F (recombinant human FSH, Merck Serono), sequence (P01225 19-129, chain 2 of 2): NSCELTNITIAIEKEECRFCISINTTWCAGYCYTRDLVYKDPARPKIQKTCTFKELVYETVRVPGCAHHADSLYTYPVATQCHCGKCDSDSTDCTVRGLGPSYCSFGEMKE
Assay [16] has as its target T5, ovine FSH. Description: cell-based or functional assay.
In assay [17] the target is human FSH (preparation not named) (human, UniProt P01215 25-116; P01225 19-129). Nature of the assay: cell-based or functional assay.
human FSH (preparation not named), sequence (P01215 25-116, chain 1 of 2): as the sequence (P01215 25-116, chain 1 of 2) above
human FSH (preparation not named), sequence (P01225 19-129, chain 2 of 2): as the sequence (P01225 19-129, chain 2 of 2) above

T4 sequence (P01215 25-116, chain 1 of 2, other chains not shown): as the sequence (P01215 25-116, chain 1 of 2) above
T6 sequence (P01215 25-116, chain 1 of 2, other chains not shown): as the sequence (P01215 25-116, chain 1 of 2) above

B1: CF12 scFv (scFv)
scFv: QVQLQQSGGAELVKPGASVKLSCKTSGFTFSSSYISWLKQKPGQSLEWIAWIYAGTGGTSYNQKFTGKAQLTVDTSSSTAYMQFSSLTTEDSAIYYCARHGSYFDYWGQGTTLTVSSGGGGSGGGGSGGGGSDIQMTQTPASLAVSLGQRATISCKASQSVDYDGDSYMNWYQQKPGQPPKLLIYAASNLESGIPARFSGSGSGTDFTLNIHPVEEEDAATYYCQQSNEDPYTFGGGTKLEIKHHHHHH
notes: Made in E. coli periplasm; also called scFv derived from the CF12 antibody
As usually defined, the Kd is the equilibrium constant for the complex coming apart. Regarding B1, the Kd was 4.73 µM with porcine LH [1]; 5.03 µM in the assay with bovine LH [2]; 6.12 µM in assay [3]; 6.24 µM in assay [4]; 3.78 µM with ovine FSH [5]; 5.07 µM in assay [6]. The values for the Kd (in assay [7]; with ovine LH [8]) were 14 µM and 5.81 µM, respectively. The optical density is 2.2 optical density units in the assay with porcine LH [9]; 2.2 optical density units in the assay with bovine LH [10]; 0.6 optical density units in assay [11]; 0.38 optical density units in assay [12]; 0.35 optical density units in [13]; 2 optical density units with ovine LH [14].

B2: CF12 monoclonal antibody (antibody, IgM, V domains shown)
VH: QGQMQQSGAELVKPGASVKLSCKTSGFTFSSSYISWLKQKPGQSLEWIAWIYAGTGGTSYNQKFTGKAQLTVDTSSSTAYMQFSSLTTEDSAIYYCARHGSYFDYWGQGTTLTVSS
VL: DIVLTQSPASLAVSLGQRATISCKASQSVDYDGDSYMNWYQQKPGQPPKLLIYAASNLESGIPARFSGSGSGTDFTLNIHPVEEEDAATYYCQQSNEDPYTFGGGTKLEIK
Regarding B2, the “increase in the bioactivity of the hormone, LogEC50, GloSensor HEK 293 hFSHR cells” value with porcine FSH stood at 0.717 LogEC50; with ovine FSH [16], 1.06 LogEC50. For the same molecule, the “increase in the bioactivity of the hormone, LogEC50 units, GloSensor HEK 293 hFSHR cells” value in [15] amounted to 0.7 LogEC50 units. Further, the “cAMP secretion of bovine granulosa cells, hFSH 3-25 ng/ml pre-complexed with 0.1 µg/ml CF12 against hFSH alone” value in assay [17] was found to be 2.5 fold.
